To fix the notation:
B1: C548 (antibody, V domains shown)
VH: QVQLVQSGAEVKKPGSSVKVSCKASGGTFSSYAISWVRQAPGQGLEWMGGIIPIFGTANYAQKFQGRVTITADESTSTAYMELSSLRSEDTAVYYCARREAYGPRDYYYYYGMDVWGQGTTVTVSS
VL: QSALTQPPSASASLGASVTLTCTLSSGYSNYKVDWYQQRPGKGPRFVMRVGTGGIVGSKGDGIPDRFSVLGSGLNRYLTIKNIQEEDESDYHCGADQGSGSNFVGVFGGGTKLTVL
B2: C560 (antibody, V domains shown)
VH: EVQLVESGGGLVQPGRSLRLSCAASGFTFDDYAMHWVRQAPGKGLEWVSGVSWNSGTIGYADSVKGRFTISRDNAKNSLYLQMNSLRAEDTALYYCAKIADIVRAYDFWSGQHFDAFDIWGQGTMVTVSS
VL: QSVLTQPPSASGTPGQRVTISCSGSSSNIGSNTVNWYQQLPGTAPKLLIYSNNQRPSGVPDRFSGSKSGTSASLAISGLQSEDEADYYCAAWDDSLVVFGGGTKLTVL
B3: C561 (antibody, V domains shown)
VH: B2 VH with M34I, T69F, L93W, I102L, R104G, W109R, D115A, I119V
VL: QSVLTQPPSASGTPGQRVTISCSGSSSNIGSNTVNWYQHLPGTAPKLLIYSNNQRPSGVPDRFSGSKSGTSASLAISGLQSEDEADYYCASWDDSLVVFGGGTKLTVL
B4: C558 (antibody, V domains shown)
VH: EVQLVQSGAEVKKPGESLKISCKVSGYTFTNYWIGWVRQMPGKGLEWMGIIYPGDSDTRYSPSFQGQVTISADKSIITAYLQWSSLKASDTAMYYCARVPSSSDYGDYGGFEYWGQGTLVTVSS
VL: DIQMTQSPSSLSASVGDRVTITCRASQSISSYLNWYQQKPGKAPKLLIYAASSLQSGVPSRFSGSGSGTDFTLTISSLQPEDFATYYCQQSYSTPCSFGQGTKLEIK
B5: C559 (antibody, V domains shown)
VH: B4 VH with Y52F, K74R, I77T, S84R
VL: DIQMTQSPSSLSASVGDRVTITCRASQTITIYLNWYQQKPGKAPKLLIYAASSLQSGVPSRFSGSGSGTDFTLTISSLQPEDFATYYCQQSYSTPCSFGQGTKLEIK
B6: C545 (antibody, V domains shown)
VH: EVQLLESGGGLVKPGGSLRLSCAASGFTFSDYSMTWVRQAPGKGLEWVSFISSSSTYIYYADSVKGRFTISRDNAKSSLYLQMNRLRAEDTAVYYCTRVQVGARGWADYWGQGTLVTVSS
VL: NFMLTQPLSVSESPGKTVTISCTRSSGSIASNYVQWYQQRPGGAPTTVIYEDTQRPSGVPDRFSGSIDSSSNSASLTISGLKTEDEADYYCQSCDTINWVFGGGTKLTVV
B7: C552 (antibody, V domains shown)
VH: QVQLVESGGGVVQPGRSLRLSCAASGFTFSSYAMHWVRQAPGKGLEWVALISYDGSNKHYADSVKGRFTISRDNSKNTLYLQMNSLRAEDTAVYYCARAGTTNSDYFDYWGQGTLVTVSS
VL: SYELTQPPSVSVAPGKTARITCGGNNIGSKSVHWYQQKPGQAPVLVIYYDTDRPSGIPERFSGSNSGNTATLTISRVEAGDEADYYCQVWDSSSALWVFGGGTKLTVL
B8: C553 (antibody, V domains shown)
VH: B7 VH with S31N, A33E, M34I, L50G, N57T, H59Y, A88P, Y94F
VL: B7 VL with K16M, N26T, P39A, T51S, A95V
B9: C549 (antibody, V domains shown)
VH: QVQLVQSGAEVKKPGSSVKVSCKASGGTFSTSAISWVRQAPGQGLEWMGGIIPFFGTPNYAQKFQGRVTIIADESTTTAYMELSGLRFEDSAVYYCARREPYGPRDYYYFFGMDVWGPGTTVTVSS
VL: QSALTQPPFASASLGASVTLTCTLSSDYSYYKVDWYQQRPGKGPRFVIRVGPGGIVGSKGDGFPDRFSVLGSGLNRSLTINNIQEEDEGDYHCGADEGSGGTFVGVFGGGTKLTV
B10: C564 (antibody, V domains shown)
VH: EVQLLESGGGLVQPGTSLRLSCAASGFTFSSYAMSWVRQAPGKGLEWVSAISSSGGSTYYADSVKGRFTISRDNSKNTLYLHMNSLRAEDTAVYYCATERIAVAGTRMYNWFDPWGQGTLVTVSS
VL: DIQMTQSPSSLSASVGDRVTLTCRASQSISSYLNWYQQKPGKAPNLLIYAASSLQSGVPSRFSGSGSGTDFTLTISSLQPEDFATYYCQQSYSAPPWTFGQGTKVEIK
B11: C546 (antibody, V domains shown)
VH: EVQLLESGGGLVHPGGSLRLSCAASGFTFSTYAMHWVRQAPGKGLEWVSAISGSGTGTFYADSVKGRFSISRDNSKNTLYLQMNSLRAEDTAVYYCATERIAVSDTRMYNWFDPWGQGTLVTVSS
VL: B10 VL with S28G, S31T

Substitutions are numbered along the chain they refer to.

By EC50 is commonly meant the concentration that produces a half-maximal response. A low value points to greater potency.

For this assay, the target named is SARS-CoV-2 spike receptor binding domain (RBD), wild type (SARS-CoV-2, UniProt P0DTC2 319-539). As to the kind of experiment: ELISA, RBD protein coated, mAb titrated. In general terms: ELISA stands for enzyme-linked immunosorbent assay.
Molecule B1 had a 50% effective concentration (EC50) of 1.72 ng/mL. B2 had a concentration for a half-maximal effect (EC50) of 1.6 ng/mL.

As to B3, the EC50 is 1.53 ng/mL. The result for B4 reads 2.41 ng/mL; that for B5, 2.89 ng/mL.

B6 registered an EC50 of 3.68 ng/mL.

As for B7, the response was half-maximal at 1.08 ng/mL (EC50).

In turn, B8 showed an EC50 of 1.19 ng/mL. To B9 belongs 1.76 ng/mL; to B10, 14.6 ng/mL; to B11, 3.57 ng/mL.

The values above are taken from patent US20220195015A1 (published 2022).
